From patent publication US20110054149A1 (published 2011)
Changes are numbered by the printed parent chain.

T1: GST-human NOGO-A56 (human, UniProt Q9NQC3 586-785)
T1 construct: also called hNOGO; recombinant human NOGO; not shown: Glutathione S-transferase (GST) tag encoded by vector pGEX-6P1, N-terminal to the NOGO-A fragment; the tag and linker se
T1 sequence: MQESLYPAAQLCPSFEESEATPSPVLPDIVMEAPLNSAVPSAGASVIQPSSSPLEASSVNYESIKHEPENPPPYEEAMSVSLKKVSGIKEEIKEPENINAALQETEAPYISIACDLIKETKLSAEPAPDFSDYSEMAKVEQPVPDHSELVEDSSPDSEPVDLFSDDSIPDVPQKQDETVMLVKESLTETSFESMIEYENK

B1: H17L16 (antibody, human IgG1, kappa)
heavy: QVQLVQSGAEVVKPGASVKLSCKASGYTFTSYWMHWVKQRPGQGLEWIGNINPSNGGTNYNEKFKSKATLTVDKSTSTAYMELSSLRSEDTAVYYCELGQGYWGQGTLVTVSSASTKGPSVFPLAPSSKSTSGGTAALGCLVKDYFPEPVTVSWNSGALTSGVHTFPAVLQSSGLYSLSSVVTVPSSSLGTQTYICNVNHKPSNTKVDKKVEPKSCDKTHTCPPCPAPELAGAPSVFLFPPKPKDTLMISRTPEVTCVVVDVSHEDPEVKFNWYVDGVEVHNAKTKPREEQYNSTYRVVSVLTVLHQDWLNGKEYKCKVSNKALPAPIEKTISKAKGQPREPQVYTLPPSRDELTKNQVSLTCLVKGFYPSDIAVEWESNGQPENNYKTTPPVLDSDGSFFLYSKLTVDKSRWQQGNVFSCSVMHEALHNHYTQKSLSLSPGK
light: DIVMTQSPLSNPVTLGQPVSISCRSSKSLLYKDGKTYLNWFLQRPGQSPQLLIYLMSTRASGVPDRFSGGGSGTDFTLKISRVEAEDVGVYYCQQLVEYPLTFGQGTKLEIKRTVAAPSVFIFPPSDEQLKSGTASVVCLLNNFYPREAKVQWKVDNALQSGNSQESVTEQDSKDSTYSLSSTLTLSKADYEKHKVYACEVTHQGLSSPVTKSFNRGEC
notes: Humanised 2A10; human gamma-1 mutated constant region, human kappa
B2: H14L16 (antibody, human IgG1, kappa, V domains shown)
VH: QVQLVQSGAEVVKPGASVKLSCKASGYTFTSYWMHWVKQAPGQGLEWIGNINPSNGGTNYNEKFKSRATLTRDTSTSTAYMELSSLRSEDTAVYYCELGQGYWGQGTLVTVSS
VL: DIVMTQSPLSNPVTLGQPVSISCRSSKSLLYKDGKTYLNWFLQRPGQSPQLLIYLMSTRASGVPDRFSGGGSGTDFTLKISRVEAEDVGVYYCQQLVEYPLTFGQGTKLEIKR
notes: as for B1
B3: H14L18 (antibody, human IgG1, kappa, V domains shown)
VH: B2 VH
VL: B2 VL with S7D, P64S, G70S
notes: as for B1
B4: H14L13 (antibody, human IgG1, kappa, V domains shown)
VH: B2 VH
VL: B2 VL with N11L, V19A, L42Q
notes: Humanised 2A10; tested as CHO-K1 transfection supernatant; Human gamma-1 mutated constant region, human kappa
B5: H6L18 (antibody, human IgG1, kappa, V domains shown)
VH: B2 VH with V12K, L20V, K38R, L70M
VL: B2 VL with S7D, P64S, G70S
notes: as for B4
B6: H18L18 (antibody, human IgG1, kappa, V domains shown)
VH: B2 VH with A40R, R67K, R72V, T74K, T76S, T91S
VL: B2 VL with S7D, P64S, G70S
notes: as for B4
B7: H15L18 (antibody, human IgG1, kappa, V domains shown)
VH: B2 VH with A40R, R67K, R72V, T76S, T91S
VL: B2 VL with S7D, P64S, G70S
notes: as for B4
B8: H15L16 (antibody, human IgG1, kappa, V domains shown)
VH: B2 VH with A40R, R67K, R72V, T76S, T91S
VL: B2 VL
notes: as for B4
B9: H6L17 (antibody, human IgG1, kappa, V domains shown)
VH: B2 VH with V12K, L20V, K38R, L70M
VL: B2 VL with S7D, N11L, V19A, L42Q, P64S, G70S
notes: as for B4
B10: H6L16 (antibody, human IgG1, kappa)
heavy: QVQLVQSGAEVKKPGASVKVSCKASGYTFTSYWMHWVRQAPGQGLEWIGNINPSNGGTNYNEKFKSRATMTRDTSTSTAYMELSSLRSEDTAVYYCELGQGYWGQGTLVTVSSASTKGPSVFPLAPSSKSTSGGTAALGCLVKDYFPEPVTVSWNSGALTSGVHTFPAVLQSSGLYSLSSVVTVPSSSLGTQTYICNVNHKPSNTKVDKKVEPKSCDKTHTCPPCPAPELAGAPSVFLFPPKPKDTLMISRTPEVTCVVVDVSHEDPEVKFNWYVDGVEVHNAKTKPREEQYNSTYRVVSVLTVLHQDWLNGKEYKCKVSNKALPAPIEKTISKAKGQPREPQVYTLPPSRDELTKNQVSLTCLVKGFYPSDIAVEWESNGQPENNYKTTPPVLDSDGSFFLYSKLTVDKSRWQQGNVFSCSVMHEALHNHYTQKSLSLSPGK
light: B1 light
notes: as for B4
B11: H15L13 (antibody, human IgG1, kappa, V domains shown)
VH: B2 VH with A40R, R67K, R72V, T76S, T91S
VL: B2 VL with N11L, V19A, L42Q
notes: as for B4
B12: H16L13 (antibody, human IgG1, kappa)
heavy: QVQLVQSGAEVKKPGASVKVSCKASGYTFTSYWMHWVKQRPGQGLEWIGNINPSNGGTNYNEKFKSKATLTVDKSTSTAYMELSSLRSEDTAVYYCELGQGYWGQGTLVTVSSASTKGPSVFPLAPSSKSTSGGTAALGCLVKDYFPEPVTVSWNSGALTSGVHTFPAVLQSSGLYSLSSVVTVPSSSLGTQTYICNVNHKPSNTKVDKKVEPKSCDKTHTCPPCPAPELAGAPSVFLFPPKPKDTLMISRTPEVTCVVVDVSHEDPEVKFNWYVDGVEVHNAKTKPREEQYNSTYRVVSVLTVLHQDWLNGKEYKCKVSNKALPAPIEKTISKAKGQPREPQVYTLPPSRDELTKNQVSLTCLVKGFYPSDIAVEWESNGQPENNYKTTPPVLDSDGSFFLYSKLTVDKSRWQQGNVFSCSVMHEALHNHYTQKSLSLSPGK
light: B1 light with N11L, V19A, L42Q
notes: as for B4
B13: H17L13 (antibody, human IgG1, kappa)
heavy: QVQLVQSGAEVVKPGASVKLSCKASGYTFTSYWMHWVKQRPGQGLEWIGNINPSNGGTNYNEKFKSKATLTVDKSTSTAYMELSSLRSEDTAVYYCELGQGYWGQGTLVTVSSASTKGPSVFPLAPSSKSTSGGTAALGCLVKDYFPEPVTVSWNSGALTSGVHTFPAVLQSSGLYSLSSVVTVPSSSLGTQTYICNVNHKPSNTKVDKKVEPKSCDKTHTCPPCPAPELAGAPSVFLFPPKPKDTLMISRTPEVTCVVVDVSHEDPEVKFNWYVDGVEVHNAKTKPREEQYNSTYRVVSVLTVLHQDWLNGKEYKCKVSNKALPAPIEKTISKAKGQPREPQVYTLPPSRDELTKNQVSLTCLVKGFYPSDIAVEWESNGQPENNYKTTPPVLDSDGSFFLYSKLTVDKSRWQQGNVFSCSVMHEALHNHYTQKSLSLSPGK
light: B1 light with N11L, V19A, L42Q
notes: as for B4
B14: H6L14 (antibody, human IgG1, kappa)
heavy: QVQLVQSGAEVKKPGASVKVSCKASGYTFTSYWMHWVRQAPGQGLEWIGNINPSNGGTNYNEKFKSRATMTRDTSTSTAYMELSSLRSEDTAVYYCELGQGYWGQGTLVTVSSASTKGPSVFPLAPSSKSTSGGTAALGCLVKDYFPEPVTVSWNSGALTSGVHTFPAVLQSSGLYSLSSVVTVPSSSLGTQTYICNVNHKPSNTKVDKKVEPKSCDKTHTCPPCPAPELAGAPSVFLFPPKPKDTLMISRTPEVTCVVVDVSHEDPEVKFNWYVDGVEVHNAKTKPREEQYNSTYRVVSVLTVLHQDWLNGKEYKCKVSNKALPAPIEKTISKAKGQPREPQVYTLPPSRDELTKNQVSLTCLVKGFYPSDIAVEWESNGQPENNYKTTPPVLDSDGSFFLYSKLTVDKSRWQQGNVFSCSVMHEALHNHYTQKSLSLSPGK
light: B1 light with N11L, V19A
notes: as for B4
B15: H6L15 (antibody, human IgG1, kappa, V domains shown)
VH: B2 VH with V12K, L20V, K38R, L70M
VL: B2 VL with N11L, V19A, P64S
notes: as for B4
B16: H18L13 (antibody, human IgG1, kappa, V domains shown)
VH: B2 VH with A40R, R67K, R72V, T74K, T76S, T91S
VL: B2 VL with N11L, V19A, L42Q
notes: as for B4
B17: HcL11 (antibody, human IgG1, kappa)
heavy: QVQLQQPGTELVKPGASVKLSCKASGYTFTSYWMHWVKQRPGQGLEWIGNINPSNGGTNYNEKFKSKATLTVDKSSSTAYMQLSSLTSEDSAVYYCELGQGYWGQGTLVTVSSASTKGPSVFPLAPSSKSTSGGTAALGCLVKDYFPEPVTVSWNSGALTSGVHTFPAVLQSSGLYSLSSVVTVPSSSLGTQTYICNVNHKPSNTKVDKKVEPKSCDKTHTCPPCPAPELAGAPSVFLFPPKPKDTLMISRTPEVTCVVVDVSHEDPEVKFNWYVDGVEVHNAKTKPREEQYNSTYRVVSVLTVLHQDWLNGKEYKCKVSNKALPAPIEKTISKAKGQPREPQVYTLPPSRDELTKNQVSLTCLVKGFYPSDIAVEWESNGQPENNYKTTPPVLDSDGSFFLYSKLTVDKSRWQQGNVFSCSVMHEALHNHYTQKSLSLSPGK
light: B1 light with M4I, N11L, V19A, L42Q
notes: Chimeric heavy chain Hc paired with humanised light chain L11
B18: H10L13 (antibody, V domains shown)
VH: B2 VH with V12K, R72V, T74K
VL: DIVMTQSPLSLPVTLGQPASISCRSSKSLLYKDGKTYLNWFQQRPGQSPQLLIYLMSTRASGVPDRFSGGGSGTDFTLKISRVEAEDVGVYYCQQLVEYPLTFGQGTKLEIK
B19: H700L11 (antibody, human IgG1, kappa, V domains shown)
VH: B2 VH with V12K, L20V, K38R, R72V, T74K
VL: B2 VL with M4I, N11L, V19A, L42Q
notes: as for B1
B20: H6L6 (antibody, human IgG1, kappa, V domains shown)
VH: B2 VH with V12K, L20V, K38R, L70M
VL: B2 VL with N11L, L15P, Q17E, V19A, G70S, Q105G, L109V
notes: as for B1
B21: HcL13 (antibody, human IgG1, kappa)
heavy: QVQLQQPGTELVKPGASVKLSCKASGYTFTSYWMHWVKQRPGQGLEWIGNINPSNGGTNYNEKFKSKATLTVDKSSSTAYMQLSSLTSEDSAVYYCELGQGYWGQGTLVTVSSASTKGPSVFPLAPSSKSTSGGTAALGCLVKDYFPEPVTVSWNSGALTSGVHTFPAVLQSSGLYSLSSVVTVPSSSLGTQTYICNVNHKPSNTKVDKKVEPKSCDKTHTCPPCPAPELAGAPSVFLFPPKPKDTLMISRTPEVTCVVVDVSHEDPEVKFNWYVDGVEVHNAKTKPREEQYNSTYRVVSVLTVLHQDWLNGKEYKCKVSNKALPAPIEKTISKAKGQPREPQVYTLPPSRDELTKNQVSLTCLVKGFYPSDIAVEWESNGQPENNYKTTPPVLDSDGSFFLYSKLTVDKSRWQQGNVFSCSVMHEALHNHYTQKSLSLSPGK
light: B1 light with N11L, V19A, L42Q
notes: Chimeric heavy chain Hc paired with humanised light chain L13
B22: H5L6 (antibody, human IgG1, kappa, V domains shown)
VH: B2 VH with V12K, L20V, K38R, I48M, A68V, L70M
VL: B2 VL with N11L, L15P, Q17E, V19A, G70S, Q105G, L109V
notes: as for B1
B23: H6Lc (antibody, human IgG1, kappa, V domains shown)
VH: B2 VH with V12K, L20V, K38R, L70M
VL: DIVITQDELSNPVTSGESVSISCRSSKSLLYKDGKTYLNWFLQRPGQSPQLLIYLMSTRASGVSDRFSGSGSGTDFTLEISRVKAEDVGVYYCQQLVEYPLTFGAGTKLELKR
notes: Humanised heavy chain H6 paired with chimeric light chain Lc; For the light chain start see the note on HcLc

Target: T1, GST-human NOGO-A56
Assay: SPR (Biacore 3000), GST-human NOGO-A56 amine-coupled to CM5 chip, antibody as analyte; mean (SD) of four experiments
Description: (§1) The binding kinetics of the anti-NOGO monoclonal antibody (mAb) to recombinantly expressed human NOGO-A (GST-human NOGO-A56) was analysed using the Biacore3000 biosensor. The hNOGO-A chip was prepared as follows:
(§2) hNOGO (GST-human NOGO-A56) was immobilised to a CM5 chip by primary amine coupling using the Biacore Wizard program designed for targeted immobilisation levels. The CM5 sensor surface was activated by passing a solution of 50 mM N-hydroxy-succinimide (NHS) and 200 mM N-ethyl-N′-dimethylaminopropyl […] (EDC). Then hNOGO in sodium acetate buffer, pH5.0 or pH 4.5, was passed over the chip and immobilised. After immobilisation was complete any still activated esters were blocked by an injection of 1M ethanolamine hydrochloride, pH8.5.
(§3) The anti-NOGO mAbs were diluted down in HBS-EP (10 mM HEPES, pH 7.4, 150 mM NaCl, 3 mM EDTA, and 0.005% P-20 surfactant) and binding studies were carried out at range of defined antibody concentrations. All runs were referenced against a blanked sensor surface (one that had been activated and blocked as described earlier but had no addition of ligand). Analysis of binding was carried out using the BIAevaluation kinetic analysis software version 4.1. Biacore analysis of other antibodies of the invention essentially followed the same protocol as described herein.

Kd [nM] | koff [s⁻¹] | kon [M⁻¹ s⁻¹] | Binder
1.82 | 0.0061 | 3.38e+06 | B1

Target: T1, GST-human NOGO-A56
Assay: SPR (Biacore 3000), GST-human NOGO-A56 on CM5 chip, antibody as analyte; single experiment
Description: as §1, §2, §3

Kd [nM] | koff [s⁻¹] | kon [M⁻¹ s⁻¹] | Binder
3.6 | 0.00739 | 2.05e+06 | B2
3.6 | 0.00869 | 2.41e+06 | B3

Target: T1, GST-human NOGO-A56
Assay: SPR off-rate ranking (Biacore), CHO-K1 transfection supernatant over GST-human NOGO-A56 chip; single experiment
Description: as §2
The hNOGO chip was prepared as for kinetic analysis. Cell supernatants where taken directly from transient transfections of CHO—K1 cells. These were passed directly over the sensor surface and the interaction measured. A mock transfected cell supernatant was used for double referencing to remove any artefacts due to the tissue culture media. All runs were referenced against a blanked sensor surface (one that had been activated and blocked as described earlier but had no addition of ligand). Analysis of binding was carried out using the BIAevaluation kinetic analysis software version 4.1.

koff [s⁻¹] | Binder
0.0138 | B4
0.0089 | B2
0.0106 | B5
0.00835 | B3
0.0058 | B6
0.00594 | B7
0.00604 | B8
0.0158 | B9
0.0114 | B10
0.00965 | B11
0.00907 | B12
0.00931 | B13
0.0457 | B14
0.0211 | B15
0.00907 | B16

Target: T1, GST-human NOGO-A56
Assay: SPR (Biacore 3000), GST-human NOGO-A56 on CM5 chip, antibody as analyte; single experiment
Remark: another data set of the same source
Description: as §1, §2, §3

Kd [nM] | koff [s⁻¹] | kon [M⁻¹ s⁻¹] | Binder
3.55 | 0.0134 | 3.78e+06 | B17
12.9 | 0.0212 | 1.64e+06 | B18
19.4 | 0.0233 | 1.19e+06 | B19
21.4 | 0.0254 | 1.2e+06 | B20
1.98 | 0.00938 | 4.8e+06 | B21
30.3 | 0.047 | 1.5e+06 | B22

Target: T1, GST-human NOGO-A56
Assay: SPR (Biacore 3000), GST-human NOGO-A56 on CM5 chip, antibody as analyte; mean (SD) of two experiments
Description: as §1, §2, §3

Kd [nM] | koff [s⁻¹] | kon [M⁻¹ s⁻¹] | Binder
2.21 | 0.00284 | 2.17e+06 | B23
